Tests used:
Assay in all cases: EC50 of free RNA motif oligo competing protein binding to immobilised probe
RPS16 = RPS16 (UniProt P62249)
Outline: (§1)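 Free RNA oligos (0 nM to 30 μM) were pre-incubated with HEK293-FT lysate (2.5 mg protein/well) for 1 h at 4°C, followed by 30 min at 4°C with the same 5′-amino-C6 oligos coupled to NHS-Sepharose beads. Bound proteins were quantified by label-free LC-MS/MS and normalised to the control. EC50 was derived from a four-parameter log-logistic fit, and Kd was obtained by multiplying EC50 by a protein-dependent depletion factor.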

FUBP3 = target: T1, FUBP3 (UniProt Q96I24)
T1 sequence: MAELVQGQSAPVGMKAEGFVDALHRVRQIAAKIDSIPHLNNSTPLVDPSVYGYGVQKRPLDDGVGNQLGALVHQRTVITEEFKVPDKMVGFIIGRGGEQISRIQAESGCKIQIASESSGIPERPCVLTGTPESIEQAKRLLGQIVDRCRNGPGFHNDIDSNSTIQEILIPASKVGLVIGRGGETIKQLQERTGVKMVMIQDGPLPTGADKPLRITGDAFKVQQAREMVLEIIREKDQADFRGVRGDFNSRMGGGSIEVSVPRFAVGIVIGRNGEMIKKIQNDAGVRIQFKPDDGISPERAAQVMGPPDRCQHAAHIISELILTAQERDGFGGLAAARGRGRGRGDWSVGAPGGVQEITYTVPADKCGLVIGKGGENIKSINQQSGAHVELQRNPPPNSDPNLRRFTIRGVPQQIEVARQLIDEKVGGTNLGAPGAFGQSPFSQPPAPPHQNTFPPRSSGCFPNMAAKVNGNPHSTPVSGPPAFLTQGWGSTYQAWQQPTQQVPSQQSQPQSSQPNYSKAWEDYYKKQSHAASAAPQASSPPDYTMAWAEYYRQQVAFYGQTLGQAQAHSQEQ
Outline: as §1

KHSRP = target: T2, KHSRP (UniProt Q92945)
T2 sequence: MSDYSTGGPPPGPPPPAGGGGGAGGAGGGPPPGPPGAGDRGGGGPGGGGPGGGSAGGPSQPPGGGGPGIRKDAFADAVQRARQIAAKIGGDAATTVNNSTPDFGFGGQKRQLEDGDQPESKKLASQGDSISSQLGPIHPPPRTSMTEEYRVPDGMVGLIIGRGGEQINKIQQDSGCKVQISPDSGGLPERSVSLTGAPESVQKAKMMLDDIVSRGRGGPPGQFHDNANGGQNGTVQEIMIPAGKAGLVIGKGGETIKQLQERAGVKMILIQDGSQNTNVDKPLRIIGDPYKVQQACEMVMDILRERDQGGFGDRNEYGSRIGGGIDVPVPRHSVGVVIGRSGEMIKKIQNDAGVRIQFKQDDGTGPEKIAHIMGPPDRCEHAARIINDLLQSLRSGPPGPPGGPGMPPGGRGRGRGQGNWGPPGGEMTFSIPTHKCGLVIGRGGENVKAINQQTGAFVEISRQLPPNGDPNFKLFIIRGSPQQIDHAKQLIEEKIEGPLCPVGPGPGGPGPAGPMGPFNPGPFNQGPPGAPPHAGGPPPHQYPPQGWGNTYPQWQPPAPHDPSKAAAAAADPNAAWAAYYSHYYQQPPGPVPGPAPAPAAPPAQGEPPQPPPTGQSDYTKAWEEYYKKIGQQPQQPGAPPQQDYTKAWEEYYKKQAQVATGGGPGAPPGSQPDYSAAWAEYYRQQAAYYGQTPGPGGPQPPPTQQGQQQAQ
Outline: as §1

FIP1L1 = target: T3, FIP1L1 (UniProt Q6UN15)
T3 sequence: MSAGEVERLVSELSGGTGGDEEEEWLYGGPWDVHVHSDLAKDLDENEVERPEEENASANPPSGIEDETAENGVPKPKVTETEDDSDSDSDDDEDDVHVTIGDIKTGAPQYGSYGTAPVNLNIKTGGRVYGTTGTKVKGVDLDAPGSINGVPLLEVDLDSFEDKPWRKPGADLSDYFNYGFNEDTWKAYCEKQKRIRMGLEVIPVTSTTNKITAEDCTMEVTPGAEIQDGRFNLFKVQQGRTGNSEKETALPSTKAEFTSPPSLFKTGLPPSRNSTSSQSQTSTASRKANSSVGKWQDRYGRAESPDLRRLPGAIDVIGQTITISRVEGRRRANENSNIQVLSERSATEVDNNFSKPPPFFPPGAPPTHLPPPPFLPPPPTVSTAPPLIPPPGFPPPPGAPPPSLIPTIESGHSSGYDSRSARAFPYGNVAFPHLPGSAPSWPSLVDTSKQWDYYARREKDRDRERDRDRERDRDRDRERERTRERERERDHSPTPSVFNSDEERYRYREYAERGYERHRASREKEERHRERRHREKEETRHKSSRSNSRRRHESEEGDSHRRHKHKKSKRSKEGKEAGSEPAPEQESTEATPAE
Outline: as §1

HNRNPD = target: T4, HNRNPD (UniProt Q14103)
T4 sequence: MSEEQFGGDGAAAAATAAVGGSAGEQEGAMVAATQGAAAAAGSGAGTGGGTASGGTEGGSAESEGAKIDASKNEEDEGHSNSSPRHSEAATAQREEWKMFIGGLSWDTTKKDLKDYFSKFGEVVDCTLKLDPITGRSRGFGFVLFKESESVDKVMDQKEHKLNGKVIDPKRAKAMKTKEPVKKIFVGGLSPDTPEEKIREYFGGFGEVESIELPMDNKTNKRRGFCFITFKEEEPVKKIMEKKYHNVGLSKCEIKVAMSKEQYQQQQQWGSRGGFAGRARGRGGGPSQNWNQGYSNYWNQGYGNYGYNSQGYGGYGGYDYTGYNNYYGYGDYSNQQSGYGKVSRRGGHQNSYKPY
Outline: as §1

PABPC4 = PABPC4 (UniProt Q13310)
Outline: as §1

Sequence of PABPC4 (Q13310 whole entry): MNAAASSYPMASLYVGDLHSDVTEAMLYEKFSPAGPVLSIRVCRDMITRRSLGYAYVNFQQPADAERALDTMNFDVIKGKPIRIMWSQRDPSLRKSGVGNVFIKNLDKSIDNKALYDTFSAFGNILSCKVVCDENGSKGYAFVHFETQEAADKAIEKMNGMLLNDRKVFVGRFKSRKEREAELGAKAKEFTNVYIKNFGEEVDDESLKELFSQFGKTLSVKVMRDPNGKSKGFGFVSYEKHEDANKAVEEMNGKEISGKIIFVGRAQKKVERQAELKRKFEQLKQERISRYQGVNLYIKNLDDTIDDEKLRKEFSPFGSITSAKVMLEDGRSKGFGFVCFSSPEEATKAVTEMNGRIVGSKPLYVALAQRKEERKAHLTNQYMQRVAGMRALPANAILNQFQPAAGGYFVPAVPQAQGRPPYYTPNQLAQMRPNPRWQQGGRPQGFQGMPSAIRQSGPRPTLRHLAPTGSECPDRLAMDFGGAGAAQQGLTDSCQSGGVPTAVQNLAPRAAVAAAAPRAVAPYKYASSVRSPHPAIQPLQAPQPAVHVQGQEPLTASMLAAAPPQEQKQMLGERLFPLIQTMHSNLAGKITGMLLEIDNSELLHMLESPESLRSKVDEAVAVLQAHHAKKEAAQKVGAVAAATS

Sequence	EC50 (RPS16) [nM]	EC50 (FUBP3) [nM]	EC50 (KHSRP) [nM]	EC50 (FIP1L1) [nM]	EC50 (HNRNPD) [nM]	EC50 (PABPC4) [nM]
CUGUCCU	175	–	–	–	–	–
AAUAAA	764	2150	2220	64.8	6520	4280
UAUUUAU	–	802	1730	1390	653	13600

Reference: the supplement of paper PMC6379048
